Test results: PMC5127644, “SPRTN is a mammalian DNA-binding metalloprotease that resolves DNA-protein crosslinks”

Tests used:
SPRTN-∆C (a.a. 1-216) = molecular target: T1, SPRTN-∆C (a.a. 1-216) (Homo sapiens, UniProt Q9H040 1-216); experiment: EMSA; 5 uM ZnSO4; EMSA: 10 mM Tris-HCl pH 7.5, 0.2 mM DTT, 5 uM ZnSO4, 0.25 uM DNA, 30 uL, 30 min at 20 C, 1.5% agarose gel; settings: protein: recombinant, tags: His tag (pNIC28-Bsa4), TEV-cleaved (E. coli)
T1 sequence: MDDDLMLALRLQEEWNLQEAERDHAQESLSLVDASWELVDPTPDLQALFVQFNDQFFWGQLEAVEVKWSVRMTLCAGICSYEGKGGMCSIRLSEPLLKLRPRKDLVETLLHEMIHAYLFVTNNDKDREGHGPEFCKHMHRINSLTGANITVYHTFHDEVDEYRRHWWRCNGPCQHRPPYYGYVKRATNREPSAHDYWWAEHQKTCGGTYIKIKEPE

SPRTN full length = molecular target: T2, SPRTN full length (Homo sapiens, UniProt Q9H040 1-489); experiment: as above; settings: protein: recombinant, tags: Z-basic-His tag, TEV-cleaved (E. coli, pNIC-ZB)
T2 sequence: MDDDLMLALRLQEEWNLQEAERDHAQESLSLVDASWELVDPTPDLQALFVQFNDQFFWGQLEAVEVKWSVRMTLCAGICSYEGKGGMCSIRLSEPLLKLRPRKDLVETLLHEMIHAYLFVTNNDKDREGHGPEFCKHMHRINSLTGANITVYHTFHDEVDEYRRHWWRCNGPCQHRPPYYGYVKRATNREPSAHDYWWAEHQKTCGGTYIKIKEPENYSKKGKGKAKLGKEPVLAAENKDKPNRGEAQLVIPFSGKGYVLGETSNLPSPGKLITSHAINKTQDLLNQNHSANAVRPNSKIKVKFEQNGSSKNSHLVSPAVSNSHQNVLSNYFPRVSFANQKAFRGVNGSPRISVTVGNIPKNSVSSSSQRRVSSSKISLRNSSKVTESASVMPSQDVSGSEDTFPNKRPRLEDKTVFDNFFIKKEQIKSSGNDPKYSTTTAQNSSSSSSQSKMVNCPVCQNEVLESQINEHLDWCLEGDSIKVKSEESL

[1] = label: 6-FAM (5' as drawn), single strand
[2] = label: 6-FAM on strand 1, blunt

GCGCGCCCATTGATACTAAATTCAAGGATGACTTATTTC (ssDNA) [6-FAM-ssODN 39-mer]
binding result (SPRTN-∆C (a.a. 1-216); [1]): no binding
binding result (SPRTN full length; [1]): binds

B1: 6-FAM-dsODN 39-mer (dsDNA)
DNA 1: GCGCGCCCATTGATACTAAATTCAAGGATGACTTATTTC
DNA 2: GAAATAAGTCATCCTTGAATTTAGTATCAATGGGCGCGC
binding result (SPRTN-∆C (a.a. 1-216); [2]): no binding
binding result (SPRTN full length; [2]): binds
